Target: TraF/VirB10 C-terminal domain starting at N161 (elastase-cleaved, C-terminal Strep-tag) (Escherichia coli (plasmid pKM101)) (UniProt Q46705)
Assay: cryo-EM structure

stoichiometry N: 14
Substance: TraF/VirB10 C-terminal domain starting at N161 (elastase-cleaved, C-terminal Strep-tag) (from UniProt Q46705 161-386) (domain or fragment)
